Experimental data reported in IntAct's records for PubMed 24668264.

Tests used:
wdfy3_human WDFY3 = wdfy3_human WDFY3 (UniProt Q8IZQ1)
mlp3b_human MAP1LC3B = mlp3b_human MAP1LC3B (UniProt Q9GZQ8)
mlp3c_human MAP1LC3C [1] = molecular target: mlp3c_human MAP1LC3C (UniProt Q9BXW4)
mlp3c_human MAP1LC3C [2] = molecular target: mlp3c_human MAP1LC3C (UniProt Q9BXW4); remark: listed apart in the source

UniProt Q9BXW4, sequence (Q9BXW4 whole entry): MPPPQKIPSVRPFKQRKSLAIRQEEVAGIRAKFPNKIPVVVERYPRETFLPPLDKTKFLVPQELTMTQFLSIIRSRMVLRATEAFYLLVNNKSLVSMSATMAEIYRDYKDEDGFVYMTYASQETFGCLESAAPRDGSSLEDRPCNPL
UniProt Q8IZQ1, sequence (Q8IZQ1 whole entry): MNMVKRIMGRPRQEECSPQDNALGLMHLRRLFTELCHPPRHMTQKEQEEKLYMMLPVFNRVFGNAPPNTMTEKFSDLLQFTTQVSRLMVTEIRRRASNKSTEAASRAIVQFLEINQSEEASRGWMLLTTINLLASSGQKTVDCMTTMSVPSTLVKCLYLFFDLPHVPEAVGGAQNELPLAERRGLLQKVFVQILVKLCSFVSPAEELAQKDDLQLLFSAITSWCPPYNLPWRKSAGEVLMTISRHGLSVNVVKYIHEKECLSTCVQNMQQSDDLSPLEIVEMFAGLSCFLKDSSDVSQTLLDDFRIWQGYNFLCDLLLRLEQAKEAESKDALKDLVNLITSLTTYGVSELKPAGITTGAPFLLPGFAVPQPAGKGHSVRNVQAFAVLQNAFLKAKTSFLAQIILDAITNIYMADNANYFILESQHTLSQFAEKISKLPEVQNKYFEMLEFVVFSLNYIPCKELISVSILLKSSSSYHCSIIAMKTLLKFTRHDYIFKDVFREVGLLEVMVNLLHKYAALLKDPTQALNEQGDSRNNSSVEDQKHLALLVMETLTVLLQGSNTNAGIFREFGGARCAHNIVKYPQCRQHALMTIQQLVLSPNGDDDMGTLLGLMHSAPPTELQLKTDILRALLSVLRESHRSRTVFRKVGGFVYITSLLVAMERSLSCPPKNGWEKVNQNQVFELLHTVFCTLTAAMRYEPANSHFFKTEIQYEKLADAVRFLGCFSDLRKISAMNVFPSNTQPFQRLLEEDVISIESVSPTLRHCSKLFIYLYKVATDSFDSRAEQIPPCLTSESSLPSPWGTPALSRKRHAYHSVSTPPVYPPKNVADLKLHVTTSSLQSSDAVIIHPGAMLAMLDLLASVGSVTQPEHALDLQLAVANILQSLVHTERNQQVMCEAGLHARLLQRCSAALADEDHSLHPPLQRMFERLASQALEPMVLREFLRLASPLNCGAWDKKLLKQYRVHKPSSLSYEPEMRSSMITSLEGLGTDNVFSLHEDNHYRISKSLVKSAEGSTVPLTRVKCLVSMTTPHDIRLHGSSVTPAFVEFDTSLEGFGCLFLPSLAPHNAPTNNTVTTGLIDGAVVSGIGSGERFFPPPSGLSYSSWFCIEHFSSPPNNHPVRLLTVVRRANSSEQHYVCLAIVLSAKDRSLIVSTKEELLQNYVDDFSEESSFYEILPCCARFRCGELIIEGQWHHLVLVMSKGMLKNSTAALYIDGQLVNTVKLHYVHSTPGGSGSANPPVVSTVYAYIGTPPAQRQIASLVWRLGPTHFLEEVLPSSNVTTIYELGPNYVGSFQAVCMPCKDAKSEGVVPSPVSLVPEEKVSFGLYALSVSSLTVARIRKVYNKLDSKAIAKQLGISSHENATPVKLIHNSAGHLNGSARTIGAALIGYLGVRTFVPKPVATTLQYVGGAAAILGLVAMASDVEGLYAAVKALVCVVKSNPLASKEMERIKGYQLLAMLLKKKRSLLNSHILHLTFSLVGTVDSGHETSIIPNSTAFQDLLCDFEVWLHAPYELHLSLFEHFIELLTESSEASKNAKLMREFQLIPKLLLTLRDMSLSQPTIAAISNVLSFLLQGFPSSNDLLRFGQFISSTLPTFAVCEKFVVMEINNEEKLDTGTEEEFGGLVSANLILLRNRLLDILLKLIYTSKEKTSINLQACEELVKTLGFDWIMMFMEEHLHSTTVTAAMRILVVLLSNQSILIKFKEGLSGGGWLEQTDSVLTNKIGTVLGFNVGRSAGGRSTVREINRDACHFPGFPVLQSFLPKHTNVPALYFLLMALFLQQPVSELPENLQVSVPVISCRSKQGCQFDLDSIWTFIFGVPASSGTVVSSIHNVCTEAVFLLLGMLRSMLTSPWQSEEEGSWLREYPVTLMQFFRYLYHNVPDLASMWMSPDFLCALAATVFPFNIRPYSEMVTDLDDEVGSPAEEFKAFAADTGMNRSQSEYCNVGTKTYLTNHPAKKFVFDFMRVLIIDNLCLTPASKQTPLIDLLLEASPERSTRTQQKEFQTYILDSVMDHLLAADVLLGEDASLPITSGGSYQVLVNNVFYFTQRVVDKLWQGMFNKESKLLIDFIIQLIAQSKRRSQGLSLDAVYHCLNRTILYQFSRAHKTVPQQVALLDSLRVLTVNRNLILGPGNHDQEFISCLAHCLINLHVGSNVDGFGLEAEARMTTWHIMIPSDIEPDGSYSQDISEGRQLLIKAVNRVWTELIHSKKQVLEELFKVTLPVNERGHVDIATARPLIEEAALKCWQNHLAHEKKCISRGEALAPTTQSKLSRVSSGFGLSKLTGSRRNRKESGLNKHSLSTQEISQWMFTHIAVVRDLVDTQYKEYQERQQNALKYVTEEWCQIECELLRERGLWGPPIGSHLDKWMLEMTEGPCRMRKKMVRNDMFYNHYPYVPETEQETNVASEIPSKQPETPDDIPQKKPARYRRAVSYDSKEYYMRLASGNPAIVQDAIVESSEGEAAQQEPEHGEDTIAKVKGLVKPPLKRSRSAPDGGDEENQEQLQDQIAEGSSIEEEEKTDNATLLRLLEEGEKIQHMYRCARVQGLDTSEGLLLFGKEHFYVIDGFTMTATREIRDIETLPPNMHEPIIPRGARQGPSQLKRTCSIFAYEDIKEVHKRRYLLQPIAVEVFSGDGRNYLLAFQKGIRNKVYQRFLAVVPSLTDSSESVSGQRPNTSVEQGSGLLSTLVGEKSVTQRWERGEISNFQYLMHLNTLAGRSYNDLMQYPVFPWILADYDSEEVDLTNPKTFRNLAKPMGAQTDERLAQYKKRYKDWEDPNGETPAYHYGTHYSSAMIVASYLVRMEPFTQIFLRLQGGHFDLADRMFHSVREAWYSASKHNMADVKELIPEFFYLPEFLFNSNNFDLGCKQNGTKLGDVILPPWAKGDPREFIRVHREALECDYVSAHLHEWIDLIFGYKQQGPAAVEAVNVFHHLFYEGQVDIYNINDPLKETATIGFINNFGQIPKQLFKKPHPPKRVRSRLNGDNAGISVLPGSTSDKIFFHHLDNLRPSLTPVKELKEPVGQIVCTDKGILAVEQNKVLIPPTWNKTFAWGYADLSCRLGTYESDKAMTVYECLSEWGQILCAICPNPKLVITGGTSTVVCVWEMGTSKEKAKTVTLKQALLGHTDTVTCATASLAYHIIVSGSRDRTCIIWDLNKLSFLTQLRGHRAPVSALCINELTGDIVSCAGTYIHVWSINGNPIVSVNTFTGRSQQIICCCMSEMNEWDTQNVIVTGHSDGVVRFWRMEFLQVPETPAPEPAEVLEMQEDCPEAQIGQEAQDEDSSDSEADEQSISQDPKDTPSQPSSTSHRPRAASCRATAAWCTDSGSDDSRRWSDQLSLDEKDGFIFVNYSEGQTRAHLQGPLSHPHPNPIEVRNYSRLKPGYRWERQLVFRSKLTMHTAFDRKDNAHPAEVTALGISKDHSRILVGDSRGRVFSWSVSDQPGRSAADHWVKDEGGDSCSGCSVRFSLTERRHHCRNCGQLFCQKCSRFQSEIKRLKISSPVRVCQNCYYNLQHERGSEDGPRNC

Microtubule-associated protein 1 light chain 3 beta (Homo sapiens) (from UniProt Q9GZQ8) Q26K;H27Y;H57D
effect of a mutation on the interaction (wdfy3_human WDFY3): increasing interaction

WD repeat and FYVE domain-containing protein 3 (Homo sapiens), Q8IZQ1 F3346A
effect of a mutation on the interaction (mlp3b_human MAP1LC3B): disrupting interaction

WD repeat and FYVE domain-containing protein 3 (Homo sapiens), Q8IZQ1 I3347A
effect of a mutation on the interaction (mlp3c_human MAP1LC3C [1]): decreasing interaction

WD repeat and FYVE domain-containing protein 3 (Homo sapiens), Q8IZQ1 V3349A
effect of a mutation on the interaction (mlp3c_human MAP1LC3C [2]): decreasing interaction
